{"source": "patent US20160131656A1", "about": "(EXTERNAUTICS S P A, published 2016)", "binders": {"B1": {"name": "anti-FAT1 monoclonal antibody mAb91.3 (antibody, V domains shown)", "VH": "VQLQQSGSELVRPGASVKLSCKASGYTFTRSWMHWIKQRPGQGLEWIGNIYPGSGGTNYDEKFKSKATLTVDTSSSTAYMQLSSLTSEDSAIYYCTRSGGQRFDYWGQGTTLTVSS", "VL": "IVMTQSPAIMSAFSGEKVTMTCSASSSVSSMHWYQQKSSTSPKFWIYDTSKLASGVPGRFSGSGSGNSYSLTISSMEAEDVATYYCFQGSGYPFTFGGGTKLEIKR", "notes": "Mouse hybridoma antibody, subclass IgG1k; also called anti-FAT1 mAb91.3; the anti-FAT1 monoclonal antibody"}, "B2": {"name": "FAT1 25 mer Peptide 2 (peptide)", "peptide": "YHVIATDKDEGPNAEISYSIEDGNE", "notes": "Made by chemical synthesis"}, "B3": {"name": "FAT1 25 mer Peptide 3 (peptide)", "peptide": "IQVEATDKDLGPNGHVTYSIVTDTD", "notes": "Made by chemical synthesis"}, "B4": {"name": "FAT1 25 mer Peptide 1 (peptide)", "peptide": "REPLYHVIATDKDEGPNAEISYSIE", "notes": "Made by chemical synthesis"}}, "key": {"FAT1 25 mer Peptide 3": {"molecular_target": "B3", "experiment": "ELISA with 25 mer peptides", "procedure": "(§1) For ELISA competition experiments, ELISA plates (Nunc Maxisorp) were coated with 1 μg of the FAT1 recombinant proteins in PBS (pH 7.4) at 4° C. overnight. The plates were washed, treated for 1 h at 37° C. with PBS-1% BSA, and 100 μl aliquots of mAb91.3 at (10 micrograms/ml) in PBS-0.1% Tween were added to the wells in the presence of the 25 mer peptides at concentration ranging from 0.001 to 100 micrograms/ml. After incubation for 2 h at 37° C., plates were again washed and incubated for 1 h at 37° C. with alkaline-phosphatase conjugated goat anti-mouse IgG (Sigma) diluted 1:2500 in PBS-Tween. Thereafter 100 μl of PNPP substrate (Sigma) were added to the samples and incubated for 30 min at room temperature and optical densities were read at 405 nm."}, "FAT1 25 mer Peptide 1": {"molecular_target": "B4", "experiment": "ELISA with 25 mer peptides", "procedure": "as §1"}, "FAT1 25 mer Peptide 2": {"molecular_target": "B2", "experiment": "ELISA with 25 mer peptides", "procedure": "as §1"}, "[1]": {"molecular_target": "T1, FAT1 recombinant cadherin Domain 8 (amino acid 823 to amino acid 927) (human, UniProt Q14517 826-923, limits assumed)", "T1 construct": "Recombinant form purified from E. coli, used in ELISA and SPR; Any tag is not described; A His6-V5 tagged version was also expressed in transfected HeLa and HEK-293T cells for Western blot; also called FAT Domain 8", "T1 sequence": "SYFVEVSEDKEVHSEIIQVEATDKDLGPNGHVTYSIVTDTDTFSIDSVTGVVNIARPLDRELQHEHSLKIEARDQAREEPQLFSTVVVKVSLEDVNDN", "experiment": "SPR, Biacore T100, 25 C, FAT1 domain amine-coupled to CM5 chip, mAb91.3 injected, 1:1 Langmuir model", "procedure": "(§2) The kinetics of association and dissociation and the Dissociation constants of the anti-FAT1 mAb91.3 were determined using Surface Plasmon Resonance Analysis. Experiments were performed at 25° C. with a BIACORE T100 instrument (Biacore A B, Uppsala, Sweden). The recombinant FAT1 proteins were immobilised on a carboxymethylated dextran-coated (CM5) sensor chip by amine coupling. Briefly, a mixture of 0.2 M 1-ethyl-3-[…]-carbodiimide (EDC) and 0.05 M N-hydroxysuccinimide (NHS) was used for sensor chip surface activation. Proteins pre-concentrated in 0.01 M sodium acetate pH 3.5 were injected at concentration ranging from 2.5 and 5 μg/ml for 10 min and then 1 M ethanolamine pH 8.5 was used to block any remaining activated groups. mAb91.3 was diluted in HBS-EP+buffer at different concentrations from 0.625 μg/ml to 5 μg/ml and injected for 120 s at a flow rate of […] on flow cell 2 and 3. HBS-EP+ buffer was run as control."}, "[2]": {"molecular_target": "T2, FAT1 recombinant cadherin Domain 12 (amino acid 1246 to 1352) (human, UniProt Q14517 1250-1344, limits assumed)", "T2 construct": "Recombinant form purified from E. coli, used in ELISA, SPR and Western blot; Any tag is not described; also called FAT Domain 12", "T2 sequence": "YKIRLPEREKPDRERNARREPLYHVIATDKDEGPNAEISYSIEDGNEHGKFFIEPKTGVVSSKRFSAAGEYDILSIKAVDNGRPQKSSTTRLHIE", "experiment": "SPR, Biacore T100, 25 C, FAT1 domain amine-coupled to CM5 chip, mAb91.3 injected, 1:1 Langmuir model", "procedure": "as §2"}, "[3]": {"molecular_target": "B1", "experiment": "FACS competition on HCT-15 cells: mAb91.3 incubated with rising peptide concentration; blocked partner is FAT1 on the cell surface", "procedure": "For Flow Cytometry analysis, cells (2×10⁴ per well) were pelleted in 96 U-bottom microplates by centrifugation at 200× g for 5 min at 4° C. and incubated for 1 hour at 4° C. with the appropriate dilutions of anti-FAT1-monoclonal antibody. The cells were washed twice in PBS-5% FCS and incubated for 20 min with the appropriate dilution of R-Phycoerythrin (PE)-conjugated secondary antibodies (Jackson Immuno Research, PA, USA) at 4° C. After washing, cells were analysed by a FACS Canto II flow cytometer (Becton Dickinson). Data were analyzed with FlowJo 8.3.3 program."}}}
{"binder": "B1", "values": [{"measurement": "binding result", "setting": "FAT1 25 mer Peptide 3", "result": "binds"}, {"measurement": "binding result", "setting": "FAT1 25 mer Peptide 1", "result": "binds"}, {"measurement": "binding result", "setting": "FAT1 25 mer Peptide 2", "result": "binds"}, {"measurement": "Kd", "setting": "[1]", "result": 9.52, "unit": "nM"}, {"measurement": "koff", "setting": "[1]", "result": 0.00313, "unit": "s⁻¹"}, {"measurement": "kon", "setting": "[1]", "result": 329000, "unit": "M⁻¹ s⁻¹"}, {"measurement": "Kd", "setting": "[2]", "result": 18.2, "unit": "nM"}, {"measurement": "koff", "setting": "[2]", "result": 0.00707, "unit": "s⁻¹"}, {"measurement": "kon", "setting": "[2]", "result": 389000, "unit": "M⁻¹ s⁻¹"}]}
{"binder": "B2", "values": [{"measurement": "binding result", "setting": "[3]", "result": "binds"}]}
{"binder": "B3", "values": [{"measurement": "binding result", "setting": "[3]", "result": "binds"}]}
{"binder": "B4", "values": [{"measurement": "IC50 (read off the curve)", "setting": "[3]", "result": "~0.5", "unit": "µg/mL"}]}
